Target: Sec23a/Sec24d (full-length, wild type) (H. sapiens) (UniProt Q15436)
Experiment: cell-based or functional assay
Conditions: scale: % of protein present in starting permeabilized cells

Chain of Sec23a/Sec24d (full-length, wild type) (H. sapiens) (Q15436 whole entry, chain 1 of 2): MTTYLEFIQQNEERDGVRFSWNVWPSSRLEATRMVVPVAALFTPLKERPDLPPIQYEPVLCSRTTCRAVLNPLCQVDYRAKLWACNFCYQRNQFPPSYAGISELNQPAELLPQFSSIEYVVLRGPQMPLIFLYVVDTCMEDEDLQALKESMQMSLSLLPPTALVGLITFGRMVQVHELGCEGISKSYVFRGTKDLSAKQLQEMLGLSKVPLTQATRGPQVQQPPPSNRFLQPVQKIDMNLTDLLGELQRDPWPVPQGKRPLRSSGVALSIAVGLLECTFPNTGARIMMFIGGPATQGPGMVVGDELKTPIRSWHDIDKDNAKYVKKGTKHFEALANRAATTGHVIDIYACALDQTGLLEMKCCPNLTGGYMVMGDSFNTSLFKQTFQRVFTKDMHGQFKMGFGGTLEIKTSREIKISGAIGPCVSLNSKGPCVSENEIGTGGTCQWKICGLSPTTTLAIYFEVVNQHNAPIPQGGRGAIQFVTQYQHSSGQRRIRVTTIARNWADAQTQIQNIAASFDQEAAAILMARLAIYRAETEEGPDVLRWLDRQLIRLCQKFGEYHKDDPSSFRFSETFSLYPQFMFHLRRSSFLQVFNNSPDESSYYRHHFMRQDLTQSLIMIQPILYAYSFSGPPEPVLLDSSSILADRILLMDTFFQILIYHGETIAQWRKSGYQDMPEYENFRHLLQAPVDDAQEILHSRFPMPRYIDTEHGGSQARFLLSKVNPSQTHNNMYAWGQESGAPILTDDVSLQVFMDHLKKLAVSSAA
Chain of Sec23a/Sec24d (full-length, wild type) (H. sapiens) (O94855 other isoform, or with tags, fused parts or gaps, chain 2 of 2, further chain): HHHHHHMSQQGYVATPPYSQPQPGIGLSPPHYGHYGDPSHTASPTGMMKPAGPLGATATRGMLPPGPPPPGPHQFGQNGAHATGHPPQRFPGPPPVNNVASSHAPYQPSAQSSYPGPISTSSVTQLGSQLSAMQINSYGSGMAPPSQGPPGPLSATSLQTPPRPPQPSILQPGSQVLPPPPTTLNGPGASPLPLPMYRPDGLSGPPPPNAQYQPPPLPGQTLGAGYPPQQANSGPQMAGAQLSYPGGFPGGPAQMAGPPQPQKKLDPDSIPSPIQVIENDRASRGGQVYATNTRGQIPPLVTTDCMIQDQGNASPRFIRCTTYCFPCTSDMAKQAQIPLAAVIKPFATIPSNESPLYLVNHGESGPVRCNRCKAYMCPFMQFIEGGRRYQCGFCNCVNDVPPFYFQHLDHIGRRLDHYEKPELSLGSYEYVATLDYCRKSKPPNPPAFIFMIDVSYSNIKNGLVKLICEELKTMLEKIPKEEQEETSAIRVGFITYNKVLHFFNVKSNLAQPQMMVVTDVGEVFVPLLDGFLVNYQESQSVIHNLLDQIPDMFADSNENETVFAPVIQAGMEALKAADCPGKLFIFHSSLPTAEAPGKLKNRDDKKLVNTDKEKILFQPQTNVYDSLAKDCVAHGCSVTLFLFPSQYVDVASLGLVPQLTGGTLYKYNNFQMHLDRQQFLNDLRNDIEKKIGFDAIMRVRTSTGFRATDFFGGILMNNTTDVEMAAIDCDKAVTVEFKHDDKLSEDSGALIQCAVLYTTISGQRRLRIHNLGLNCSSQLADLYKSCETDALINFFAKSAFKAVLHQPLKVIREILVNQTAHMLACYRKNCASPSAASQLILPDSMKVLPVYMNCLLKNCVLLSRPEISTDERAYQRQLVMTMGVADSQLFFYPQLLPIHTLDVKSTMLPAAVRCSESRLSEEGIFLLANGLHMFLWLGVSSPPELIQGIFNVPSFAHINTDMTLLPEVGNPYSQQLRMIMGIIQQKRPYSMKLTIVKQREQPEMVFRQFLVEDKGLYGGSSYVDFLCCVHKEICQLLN

Compared with ERGIC-53, p24α2 is higher in packaging efficiency with wild-type COPII, CHO-LDLRG544V cells: 4.5 for the first, 8.7 for the second.

First: p24α3
Second: p24β1
The packaging efficiency with wild-type COPII, CHO-LDLRG544V cells of the first is lower: 6.4 for the first, 10.6 for the second.

For p24δ1, the packaging efficiency with wild-type COPII, CHO-LDLRG544V cells was 7.7.

Going from p24α2 to p24α3, the packaging efficiency with wild-type COPII, wild-type CHO cells falls from 10.9 to 6.4.

p24δ1 showed a packaging efficiency with wild-type COPII, wild-type CHO cells of 4.6.

Source: patent US20200179316A1
